The values that follow are results of earlier work, collected in paper PMC11596140.

The series deals with Cdc4 (Saccharomyces cerevisiae) (UniProt P07834). Kind of series: intrinsic Trp fluorescence.
Sequence of UniProt P07834 (P07834 whole entry): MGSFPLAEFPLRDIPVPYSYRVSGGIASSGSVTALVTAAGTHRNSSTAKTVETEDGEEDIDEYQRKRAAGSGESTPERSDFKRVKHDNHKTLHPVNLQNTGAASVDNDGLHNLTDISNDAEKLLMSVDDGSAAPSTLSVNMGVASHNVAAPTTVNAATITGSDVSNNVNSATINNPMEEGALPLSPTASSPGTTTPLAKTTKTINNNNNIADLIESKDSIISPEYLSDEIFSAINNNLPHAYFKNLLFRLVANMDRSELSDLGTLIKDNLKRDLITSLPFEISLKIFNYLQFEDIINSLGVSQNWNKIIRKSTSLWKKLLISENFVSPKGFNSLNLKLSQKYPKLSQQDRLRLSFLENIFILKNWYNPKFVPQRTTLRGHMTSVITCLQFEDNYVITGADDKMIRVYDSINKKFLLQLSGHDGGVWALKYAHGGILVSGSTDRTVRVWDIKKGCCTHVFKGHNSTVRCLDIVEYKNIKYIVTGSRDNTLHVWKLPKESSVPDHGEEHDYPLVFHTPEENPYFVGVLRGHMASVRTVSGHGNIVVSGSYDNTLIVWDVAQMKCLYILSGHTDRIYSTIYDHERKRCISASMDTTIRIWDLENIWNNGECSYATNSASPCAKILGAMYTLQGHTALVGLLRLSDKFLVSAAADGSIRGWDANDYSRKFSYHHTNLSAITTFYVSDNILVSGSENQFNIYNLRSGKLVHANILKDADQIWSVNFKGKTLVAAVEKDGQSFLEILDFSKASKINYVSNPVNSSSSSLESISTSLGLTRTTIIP

As usually defined, the Kd is the equilibrium constant for the complex coming apart. Turning to Sic1 (from UniProt P38634), the Kd is 600 nM.
